Source: paper PMC5890176
Each block holds one substance with its values, some of them ahead of it.

Assays:
[1] = target: HU of Streptococcus pneumoniae (SpnHU) (Streptococcus pneumoniae R6); experiment: cross-linking; 0.1% glutaraldehyde, room temperature, 30 min, 5 mM Tris-HCl pH 8.0, 25 mM KCl, 25% glycerol, 0.25 mM EDTA, 0.25 mM DTT; SDS-PAGE (15%), Coomassie; all tested concentrations
[2] = tested on: SpnHU (HU, histone-like protein) (Streptococcus pneumoniae R6); experiment: EMSA (agarose); settings: 2 nM DNA, 10 mM Tris-HCl pH 8.0, 50 mM KCl, 0.05% Brij 58, 0.01 mg/ml BSA, 5% glycerol, 0.01 mM EDTA, 0.01 mM DTT, room temperature 20 min, 0.5% agarose in TBE

stoichiometry N [1]: 2
Substance: HU of Streptococcus pneumoniae (SpnHU) (natural protein)

Substance: pBR322 linear (PstI)
binding signal ([2]; SpnHU concentration required for shift (8-fold more than supercoiled)): 1.6 µM

Substance: pBR322 supercoiled
binding signal ([2]; SpnHU concentration at which shift seen): 0.2 µM

Substance: pBR322 nicked (Nt.BstNBI)
binding signal ([2]; SpnHU concentration required for shift (16-fold more than supercoiled), nicked with Nt.BstNBI): 3.2 µM
